± gives the uncertainty stated by the source.
Assay: amyloid nucleation score (Sup35N fusion, yeast selection) (log enrichment); library NNK3; higher = more nucleation; inactive = no reads after selection
In short: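 Sup35N fusions to peptides of 20 random codons were expressed in psi-negative yeast, induced 24 hours with 100 μM copper sulfate, and grown 7 days at 30°C on medium lacking adenine and uracil. Input and output plasmid inserts were sequenced by Illumina. The nucleation score is the DiMSum log enrichment of output over input reads, centred on the mode score of non-aggregating sequences. Sequences with under 100 input reads were excluded.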

| Substance | amyloid nucleation score |
| --- | --- |
| NQWIAICNPSPFRVLTAHI | inactive |
| ITRLNSMAMCYLIRFLS | inactive |
| FPFLSSSSDSSEMFILKLFD | inactive |
| WKPGRYSTKAPQLEVPERHV | inactive |
| RLGRSLRLIVMITG | inactive |
| TWESGENLTLTWAAQMGRCG | inactive |
| CNDGSHCLGYY | inactive |
| EAWIIMSRVGI | inactive |
| FVCLT | 1.32 ± 0.13 |
| TMYVCWSMFEAIWDINHNTS | -0.26 ± 0.64 |
| DRVSFSITY | inactive |
| GMQAGTGSKCCGRTGQI | inactive |
| HQGFE | inactive |
| SISRLVISF | inactive |
| DSSFLATFFILVTGCCLLVD | inactive |
| VYNCAMVCPNLIFWSFATGL | 2.55 ± 0.069 |
| YFEYRPKMHHYSLCYMGEFS | inactive |
| GFYLVVKTINGFPNNLKWMA | 0.296 ± 0.21 |
| PSSLKYSKRVLSVSIHWERL | inactive |
| NSSTDFS | inactive |
| RKWSNR | inactive |
| CFAYG | -0.533 ± 0.4 |
| VFVVGSVSRCCKKLVT | inactive |
| FVLESFCRPLHSWVAGMGV | inactive |

| Substance | amyloid nucleation score |
| --- | --- |
| ELCEKMFRTIFCFKCRVCMN | inactive |
| IPVFMLLMYRVSMMDSSSKS | inactive |
| SVSYFWFARL | -0.005 ± 0.98 |
| DYGLHDRTYTSIYRVA | inactive |
| SYSLPMQKRCCIGIGEAGWN | -0.354 ± 0.82 |
| FFNYIIMEIHFFALLSHRKH | inactive |
| HYLHRG | inactive |
| YIEAMNAGLPGEPARYFVVS | inactive |
| TYLRLTWIDCYSPCFKSNAI | 2.43 ± 0.061 |
| LNLLSSSMIWSFVIGNRRVY | inactive |
| TPSVRRGVMGVSPELCAMVG | inactive |
| VECHPCSHFDLHNGRIRDNR | inactive |
| NLEYCSILFKRH | 2 ± 0.095 |
| VVSSFMMLVYMNLLNFSNVE | inactive |
| SLDKLAFRD | inactive |
| MLNAIGCLSWSQFPESLLLG | inactive |
| SSKNINVILMIKR | 2.05 ± 0.066 |
| CFNGRCARLYISIIQVIELS | inactive |
| IVILPM | inactive |
| WSLSYHRKMIFGDTCVTYIG | inactive |
| QRAMYCKSLMSF | inactive |
| SKGTLKHLN | 0.921 ± 0.12 |
| GRPIKWKKRSAVK | inactive |
| LFHIQNESGVSYIKWFSLSI | 0.553 ± 0.27 |

| Substance | amyloid nucleation score |
| --- | --- |
| KNLHNTRRLCSVLLVCWMYK | inactive |
| WFVYALMNRLEYSKAYFPML | inactive |
| RKNSDLTYSNSVNLTCACRT | 0.434 ± 0.18 |
| DNTQLSVCWSLSPDTVWKLG | inactive |
| YPSMLPGTGSIAIMDEFVIM | inactive |
| LVYLSASFVW | 0.108 ± 0.67 |
| VGRSNH | inactive |
| RPHRAWALAVRVASDVCQNS | 1.11 ± 0.11 |
| PFFRASRLWLSLVRMRTLSV | inactive |
| LCIWNWFLSSNRMLRKLAD | inactive |
| LCEEYYSINTWFRYVNVDIL | inactive |
| IIFFYGGS | 1.9 ± 0.08 |
| RCEFIFS | inactive |
| PGFINFRGVTGKSLTYSILI | inactive |
| SLGYGDI | inactive |
| FERSMHFENRDSDPCYIVRF | inactive |
| YTVLWDLVFWGTPICYVIDN | inactive |
| MLVATL | inactive |
| VIYLKTRWNSWCPAGGVLLC | inactive |
| CYRCVCFLLCGFVQSDCYDD | inactive |
| YMSLVRTGKNTQMVVYRLVL | inactive |
| VMMFYNILHSQIDKLFKLLA | inactive |
| ATSEYWILLVFYLCDIAQVS | inactive |
| EKGIGYKLCMGQYAGS | inactive |

| Substance | amyloid nucleation score |
| --- | --- |
| GVYMQSLLYRCFVFYNYKLD | inactive |
| LLLIKPRKVPLIEVCGWETV | inactive |
| FSWSLSLLHIPYKQWRGRWV | inactive |
| MVMQIYIDDRPSMKVLYSEM | 0.485 ± 0.21 |
| PWMHLYRHAMFISAHLRYSC | inactive |
| GLSKKKECGFLLARIVVVVV | inactive |
| NYDERCV | -0.363 ± 0.98 |
| CPTCWRYVNIRYSI | inactive |
| WKCVLMTSATHMPQYPHGCG | inactive |
| FARFSIAFMH | 0.231 ± 0.9 |
| WCFYKSRLFVVQVVVLYNRF | inactive |
| VNFACSIGGRGLFGFGIKVS | inactive |
| ICELPNIYDVS | inactive |
| IFLAGDMC | inactive |
| SLGNYHTLGMVFRLA | -0.093 ± 0.48 |
| YIIRENLW | inactive |
| RYTWTTDYNVM | inactive |
| TFCVQYESRFRFQESESLHM | inactive |
| VLIMRCLKWFASMLCFSIPK | inactive |
| LVPVLNGVLSKLRSFNFHSG | inactive |
| LHHSVG | inactive |
| LSKNSEILIYAYVLETFSCS | inactive |
| TKGLDILDGVCVGCLRCQVD | inactive |
| TVKVYTWNY | 1.93 ± 0.09 |

| Substance | amyloid nucleation score |
| --- | --- |
| ATAPYDTVCRLYCLSWPPRS | inactive |
| LTCSWIICLSMSYLTSRYNR | 1.83 ± 0.1 |
| VTLFAMPRNL | inactive |
| IPGALGNKAICTRASSRRVG | inactive |
| DDSNCKRKDRVVSVRMMDLT | inactive |
| CCGINGIKLAAANRWSPVEH | inactive |
| RLVVNQHSPDKP | inactive |
| ANVWPISPLSGGVRLWMFGR | inactive |
| FLPWDFKASKKEPYSKYMNL | inactive |
| FVYFKLGVMSPLQTTNTHLS | 0.804 ± 0.11 |
| TNTSFSNWRCTPDRGIM | inactive |
| MVCLDWVPSNVMTLGS | inactive |
| VNNPQVDHRVLFNNM | -0.426 ± 0.61 |
| VRIFSTVEKASP | inactive |
| FSSLGANYNHEILKGCGVGS | inactive |
| LAVFKFDRSLIWDTTVRVFH | inactive |
| RSELASLKGCDIELVFTYQR | inactive |
| CVLSVEYGHNQEDAITMRCE | inactive |
| RPGYHSVVKHAKRLVEVNR | inactive |
| VKLNYISLDENVRSVKQVMI | inactive |
| GSKAHNDIDRGGSWMGWNIA | inactive |
| SFTNFFNGSVGICFRCTLMC | 2.28 ± 0.052 |

— the supplement of paper PMC12042874
